Experimental data reported in paper PMC7132122.

What was measured:
[1] = molecular target: DHX15ΔN;NKRF G-patch V582G (Homo sapiens;Homo sapiens, UniProt O43143;O15226 113-795;541-603, |V582G); test: fluorescence polarization
DHX15ΔN;NKRF G-patch wt = DHX15ΔN;NKRF G-patch wt (Homo sapiens;Homo sapiens, UniProt O43143;O15226 113-795;541-603, |); test: fluorescence polarization
DHX15ΔN;NKRF G-patch wt, sequence (O43143 113-795, stated change not applied, chain 1 of 2): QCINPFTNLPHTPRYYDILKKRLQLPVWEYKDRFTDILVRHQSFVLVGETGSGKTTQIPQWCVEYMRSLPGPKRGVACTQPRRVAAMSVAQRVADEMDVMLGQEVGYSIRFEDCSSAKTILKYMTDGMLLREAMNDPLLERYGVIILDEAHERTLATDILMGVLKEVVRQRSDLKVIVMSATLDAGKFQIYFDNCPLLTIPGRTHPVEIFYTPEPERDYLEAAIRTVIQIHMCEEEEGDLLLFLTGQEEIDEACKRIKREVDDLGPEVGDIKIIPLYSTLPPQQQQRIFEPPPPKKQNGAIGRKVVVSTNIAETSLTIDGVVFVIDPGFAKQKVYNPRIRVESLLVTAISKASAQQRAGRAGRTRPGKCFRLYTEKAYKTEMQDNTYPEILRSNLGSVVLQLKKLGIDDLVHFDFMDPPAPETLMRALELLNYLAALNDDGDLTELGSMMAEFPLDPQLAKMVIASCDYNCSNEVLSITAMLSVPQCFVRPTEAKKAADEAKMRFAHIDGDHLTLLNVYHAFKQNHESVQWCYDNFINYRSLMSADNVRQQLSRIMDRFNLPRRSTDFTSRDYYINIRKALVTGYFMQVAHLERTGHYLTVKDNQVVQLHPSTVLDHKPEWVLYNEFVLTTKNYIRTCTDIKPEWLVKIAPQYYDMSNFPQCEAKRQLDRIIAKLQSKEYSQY
DHX15ΔN;NKRF G-patch wt, sequence (O15226 541-603, stated change not applied, chain 2 of 2): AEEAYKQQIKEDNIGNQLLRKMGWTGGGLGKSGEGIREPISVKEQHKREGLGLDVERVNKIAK

DHX15ΔN;NKRF G-patch V582G, sequence (O43143 113-795, chain 1 of 2): as the sequence (O43143 113-795, stated change not applied, chain 1 of 2) above
DHX15ΔN;NKRF G-patch V582G, sequence (O15226 541-603 V582G, chain 2 of 2): as the sequence (O15226 541-603, stated change not applied, chain 2 of 2) above, with V42G counted along it

How did the binding signal [1] turn out when UUUUUUUUUUUU (ssRNA) [FAM-U12 RNA] was run?
Its binding signal is 1.2 fold increase of affinity.

And the binding signal (DHX15ΔN;NKRF G-patch wt)?
Its binding signal is ~1 fold of Kd without nucleotide.
